According to US20230159589A1 (published 2023):
Square brackets hold non-standard residues; d marks the D form. Ends that are not written are not given here. F2Pmp = N[C@@H](Cc1ccc(C(F)(F)P(=O)(O)O)cc1)C(=O)O

T1: STEP32 WT (catalytic domain of protein tyrosine phosphatase STEP/PTPN5, aa 282-563, N-terminal 6xHis tag) (UniProt P54829 282-563)
T1 construct: Expressed from pLIC-SGC1-PTPN5 WT (Addgene 39166); also called catalytic active STEP32
T1 sequence: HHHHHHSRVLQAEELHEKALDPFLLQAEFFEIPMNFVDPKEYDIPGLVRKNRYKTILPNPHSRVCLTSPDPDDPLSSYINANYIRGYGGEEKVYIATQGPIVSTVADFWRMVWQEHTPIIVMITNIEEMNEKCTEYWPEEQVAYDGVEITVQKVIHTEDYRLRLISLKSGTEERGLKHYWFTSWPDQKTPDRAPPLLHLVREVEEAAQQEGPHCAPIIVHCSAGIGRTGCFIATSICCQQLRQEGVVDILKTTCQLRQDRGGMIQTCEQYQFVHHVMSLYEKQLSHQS


Key:
[1] = biological target: STEP32 C/S (catalytically inactive substrate-trapping mutant of the catalytic domain of protein tyrosine phosphatase STEP/PTPN5, aa 282-563, C496S, N-terminal 6xHis tag) (Homo sapiens (Human)) (UniProt P54829); assay: fluorescence polarization competition; displaces TAMRA-3Y-F2Pmp from STEP32 C/S
[2] = biological target: STEP32 C/S (catalytically inactive substrate-trapping mutant of the catalytic domain of protein tyrosine phosphatase STEP/PTPN5, aa 282-563, C496S, N-terminal 6xHis tag) (Homo sapiens (Human)) (UniProt P54829); assay: SPR; reference p3Y
[3] = biological target: STEP32 C/S (catalytically inactive substrate-trapping mutant of the catalytic domain of protein tyrosine phosphatase STEP/PTPN5, aa 282-563, C496S, N-terminal 6xHis tag) (Homo sapiens (Human)) (UniProt P54829); assay: SPR (Biacore 3000), peptide immobilized, STEP32 C/S analyte, 1:1 Langmuir fit
[4] = biological target: STEP32 C/S (catalytically inactive substrate-trapping mutant of the catalytic domain of protein tyrosine phosphatase STEP/PTPN5, aa 282-563, C496S, N-terminal 6xHis tag) (Homo sapiens (Human)) (UniProt P54829); assay: SPR (value taken from Table S3)
[5] = biological target: STEP32 C/S (catalytically inactive substrate-trapping mutant of the catalytic domain of protein tyrosine phosphatase STEP/PTPN5, aa 282-563, C496S, N-terminal 6xHis tag) (Homo sapiens (Human)) (UniProt P54829); assay: fluorescence polarization competition; column headed Kd, the text speaks of IC50 values in Table 3
[6] = biological target: STEP32 C/S (catalytically inactive substrate-trapping mutant of the catalytic domain of protein tyrosine phosphatase STEP/PTPN5, aa 282-563, C496S, N-terminal 6xHis tag) (Homo sapiens (Human)) (UniProt P54829); assay: fluorescence polarization competition; displaces TAM-3Y-F2Pmp from STEP32 C/S
[7] = biological target: STEP32 C/S (catalytically inactive substrate-trapping mutant of the catalytic domain of protein tyrosine phosphatase STEP/PTPN5, aa 282-563, C496S, N-terminal 6xHis tag) (Homo sapiens (Human)) (UniProt P54829); assay: SPR, peptide immobilized, STEP32 C/S analyte
[8] = biological target: STEP32 C/S (catalytically inactive substrate-trapping mutant of the catalytic domain of protein tyrosine phosphatase STEP/PTPN5, aa 282-563, C496S, N-terminal 6xHis tag) (Homo sapiens (Human)) (UniProt P54829); assay: fluorescence polarization competition; reference EGYNVpY hexapeptide
[9] = biological target: STEP32 C/S (catalytically inactive substrate-trapping mutant of the catalytic domain of protein tyrosine phosphatase STEP/PTPN5, aa 282-563, C496S, N-terminal 6xHis tag) (Homo sapiens (Human)) (UniProt P54829); assay: ligand efficiency derived from the binding data
[10] = biological target: T1, STEP32 WT (catalytic domain of protein …); assay: SPR, peptide immobilized, STEP32 WT analyte (per FIG. 7 legend)
Description: (§1) For each kinetic experiment, at least five different protein concentrations ranging between 100 nM and 500 μM were used. […] The association and dissociation time was set to 5 min. After each interaction test, 2-4 cycles of regeneration were performed by injecting 1M NaCl in HBS-EP buffer (0.01 M HEPES pH 7.4, 0.15 M NaCl, 3 mM EDTA, 0.005% v/v Surfactant P20) for 2 min at a flow rate of 20 μl/min. HBS-EP buffer was used as a running buffer. All measurements were carried out at 25° C. The data obtained was processed with BIAevaluation 3.1 software using 1:1 Langmuir fitting model with drifting baseline (using “Kinetics Simultaneous Kd/Ka” module). Nonspecific signals were removed by subtraction of signals from the reference area.

[11] = biological target: T1, STEP32 WT (catalytic domain of protein …); assay: SPR (Biacore 3000), peptide immobilized, STEP32 WT analyte (per FIG. 7 legend), 1:1 Langmuir fit
Description: For kinetic interaction studies by SPR, each of the short phosphopeptides was covalently immobilized on a flow cell of a carboxymethylated dextran chip. […] The amino group of the spacer was used to perform the covalent binding of the ligands to the sensor.
as §1

Molecule	Ki [1]	Ka [3]	Kd [3]	koff [3]	IC50 [5]	Ki [6]	also measured
p3Ysh-4 (PEG2-NSpYG) (peptide)	13.7 µM	–	–	–	–	–	–
p3Ysh-6 (PEG2-FGYNVpYG) (peptide)	6.96 µM	163000 M⁻¹	6.13 µM	0.11 s⁻¹	–	–	fold higher Kd than p3Y [2]: 6.4 fold; kon [3]: 17900 M⁻¹ s⁻¹; Kd [4]: 6.13 µM
p3Ysh-2 (PEG2-YNVpYG) (peptide)	13.1 µM	253000 M⁻¹	3.96 µM	0.179 s⁻¹	–	–	fold higher Kd than p3Y [2]: 17 fold; kon [3]: 45200 M⁻¹ s⁻¹; Kd [4]: 3.96 µM
p3Ysh-7 (PEG2-FSpYG) (peptide)	4.57 µM	–	–	–	–	–	–
p-fin2 (DGYNVpY) (peptide)	–	–	–	–	7.15 µM	1.85 µM	–
p-fin5 (EGYNVpYGD) (peptide)	–	–	–	–	3.36 µM	0.76 µM	–
p-fin4 (EGYNVpYE) (peptide)	–	1.13e+07 M⁻¹	0.0884 µM	0.00692 s⁻¹	1.86 µM	0.36 µM	Kd [7]: 0.09 µM; fold improvement of the inhibition constant over the original hexapeptide [8]: 2 fold; kon [3]: 78200 M⁻¹ s⁻¹
p-fin1 (GYNVpY) (peptide)	–	–	–	–	8.01 µM	1.9 µM	–
p3Ysh-3 (PEG2-EGYNVpY) (peptide)	1.64 µM	1.88e+07 M⁻¹	0.0531 µM	0.00176 s⁻¹	2.6 µM	0.69 µM	fold lower Kd than p3Y [2]: 4 fold; fold smaller Kd than p3Y [2]: > 2 fold; kon [3]: 33100 M⁻¹ s⁻¹; LE (ligand efficiency) [9]: 0.64; Kd [4]: 0.06 µM
p-fin3 (NGYNVpY) (peptide)	–	–	–	–	8.84 µM	2.16 µM	–
p3Ysh-5 (PEG2-YVpYG) (peptide)	5.34 µM	–	–	–	–	–	–
p3Ysh-1 (PEG2-NVpYG) (peptide)	4.99 µM	38400 M⁻¹	26 µM	0.00252 s⁻¹	–	–	Kd [4]: 26 µM
EGYNV[F2Pmp] (also called 3Ysh-F2Pmp) [3Ysh-3-F2Pmp (EGYNV{F2Pmp})]	–	–	–	–	–	–	Kd [10]: 0.24 µM; Ka [11]: 4.12e+06 M⁻¹; Kd [11]: 0.242 µM; koff [11]: 0.00483 s⁻¹; kon [11]: 19900 M⁻¹ s⁻¹
ATYKEGYNV[F2Pmp]G (also called p3Y-F2Pmp) [3Y-F2Pmp (ATYKEGYNV{F2Pmp}G)]	–	–	–	–	–	–	Kd [10]: 0.27 µM; Ka [11]: 3.74e+06 M⁻¹; Kd [11]: 0.268 µM; koff [11]: 0.00656 s⁻¹; kon [11]: 24500 M⁻¹ s⁻¹
